Data published in the supplement of paper PMC7877785.
± gives the uncertainty stated by the source.

Experiment: self-splicing fitness, log relative to wild type (ln ratio); higher = more splicing; Tetrahymena group I intron in knt gene, E. coli kanamycin selection, DiMSum; sequences stand for … in CUCUCU…GGAGGGAAAAGUUAUCAGGCAUGCACCUGGUAGCUAGUCUUUAAACCAAUAGAUUGCAUCGGUUUAAAAGGCAAGACCGUCAAAUUGCGGGAAAGGGGUCAACAGCCGUUCAGUACCAAGUCUCAGGGGAAACUUUGAGAUGGCCUUGCAAAGGGUAUGGUAAUAAGCUGACGGACAUGGUCCUAACCACGCAGCCAAGUCCUAAGUCAACAGAUCUUCUGUUGAUAUGGAUGCAGUUCACAGACUAAAUGUCGGUCGGGGAAGAUGUAUUCUUCUCAUAAGAUAUAGUCGGACCUCUCCUUAAUGGGAGCUAGCGGAUGAAGUGAUGCAACACUGGAGCCGCUGGGAACUAAUUUGUAUGCGAAAGUAUAUUGAUUAGUUUUGGAGUACUCGUGGUCG
Method in brief: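 A randomised library covering all eight P1ex-region intron nucleotides was built with the intron in the knt kanamycin-resistance gene on pET-22b(+) and held in E. coli BL21(DE3). Cells were grown overnight at 37°C or 30°C on LB agar, with or without 25 μg/mL kanamycin, plus 100 μg/mL carbenicillin, 50 μM IPTG and 0.2% rhamnose, and pooled colonies were amplicon-sequenced on an Illumina HiSeq 2500. DiMSum fitness is the error-weighted combination of wild-type-normalised replicate fold changes, kanamycin versus none.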

| Sequence | self-splicing fitness (ln) (30 °C) | self-splicing fitness (ln) (37 °C) |
| --- | --- | --- |
| AGUCAGCAAUAUUACGGAGU | -1.63 ± 0.062 | -0.578 ± 0.073 |
| CGGGAGCAAUAUUACGUGUU | -5.29 ± 0.38 | -2.2 ± 0.25 |
| GGGGAGCAAUAUUACGGUCU | -3.73 ± 0.4 | -0.856 ± 0.31 |
| CCUCAGCAAUAUUACGUACC | -4.27 ± 0.25 | -3.42 ± 0.39 |
| GGUCAGCAAUAUUACGAUUA | -0.0947 ± 0.092 | -0.0575 ± 0.092 |
| AGAAAGCAAUAUUACGAUUG | -3.82 ± 0.27 | -1.93 ± 0.21 |
| ACUAAGCAAUAUUACGAAGA | -1.65 ± 0.17 | -1.29 ± 0.18 |
| CUGCAGCAAUAUUACGAGAA | -2.56 ± 0.35 | -2.64 ± 0.33 |
| ACAUAGCAAUAUUACGAAGA | -3.19 ± 0.18 | -2.72 ± 0.16 |
| UCUAAGCAAUAUUACGACAC | -3.7 ± 0.18 | -2.82 ± 0.17 |
| GUCGAGCAAUAUUACGUGUA | -3.26 ± 0.2 | -2.12 ± 0.19 |
| AAAAAGCAAUAUUACGCUCC | -1.14 ± 0.13 | -0.319 ± 0.17 |
| GGAAAGCAAUAUUACGUAAG | -1.87 ± 0.13 | -1.18 ± 0.15 |
| CAAUAGCAAUAUUACGGCGC | -3.81 ± 0.35 | -1.37 ± 0.19 |
| CGGCAGCAAUAUUACGUUGG | -2.38 ± 0.11 | -1.46 ± 0.12 |
| CGUUAGCAAUAUUACGCUGU | -2.88 ± 0.22 | -2.71 ± 0.33 |
| UCAUAGCAAUAUUACGGGCC |  | -3.67 ± 0.46 |
| AGACAGCAAUAUUACGUUUC | -4.68 ± 0.36 | -3.7 ± 0.42 |
| GCAAAGCAAUAUUACGCCUA | -3.76 ± 0.42 | -1.11 ± 0.21 |

| Sequence | self-splicing fitness (ln) (30 °C) | self-splicing fitness (ln) (37 °C) |
| --- | --- | --- |
| CUUUAGCAAUAUUACGCGGC | -2.41 ± 0.35 | -0.897 ± 0.17 |
| GCAAAGCAAUAUUACGCACA | -0.917 ± 0.12 | -0.182 ± 0.14 |
| CACCAGCAAUAUUACGUUCC | -4.91 ± 0.41 | -2.45 ± 0.26 |
| AAACAGCAAUAUUACGUUUA | -2.11 ± 0.1 | -0.623 ± 0.078 |
| GCUGAGCAAUAUUACGUAAC | -2.3 ± 0.24 | -1.6 ± 0.36 |
| CCAAAGCAAUAUUACGGGUA | -2.96 ± 0.24 | -3.34 ± 0.43 |
| UUGAAGCAAUAUUACGUCGC | -3.48 ± 0.23 | -1.49 ± 0.24 |
| UUAGAGCAAUAUUACGCACA | -0.745 ± 0.08 | -0.314 ± 0.11 |
| CUUUAGCAAUAUUACGAGAC | -1.83 ± 0.36 | -2.9 ± 0.4 |
| CAGUAGCAAUAUUACGGCCA | -1.17 ± 0.16 | -1.11 ± 0.21 |
| AACCAGCAAUAUUACGCAAG | -2.54 ± 0.1 | -1 ± 0.1 |
| UUAUAGCAAUAUUACGGGUG | -1.68 ± 0.1 | -0.829 ± 0.12 |
| GAGCAGCAAUAUUACGCAAU | -1.89 ± 0.12 | -1.53 ± 0.2 |
| AAUAAGCAAUAUUACGUACU | 0.573 ± 0.1 | -0.654 ± 0.095 |
| GGAUAGCAAUAUUACGAAAU | -1.09 ± 0.12 | -0.476 ± 0.12 |
| GUUCAGCAAUAUUACGUCUA | -1.14 ± 0.14 | -0.132 ± 0.13 |
| AGUUAGCAAUAUUACGGAUA | -2 ± 0.31 | -1.42 ± 0.25 |
| UCGAAGCAAUAUUACGAGGA | -3.21 ± 0.39 | -1.19 ± 0.27 |
| UCUUAGCAAUAUUACGCUAG | -2.15 ± 0.19 | -2.47 ± 0.28 |
